Source: patent US20240317882A1 (WUHAN BIO RAID BIOTECH, published 2024)
Numbering of substitutions follows the chain as printed.

T1: extracellular domain of CD99 (UniProt P14209 23-122, limits assumed)
T1 construct: extracellular domain; also called antigen CD99; purified recombinant extracellular domain of CD99
T1 sequence (looked up): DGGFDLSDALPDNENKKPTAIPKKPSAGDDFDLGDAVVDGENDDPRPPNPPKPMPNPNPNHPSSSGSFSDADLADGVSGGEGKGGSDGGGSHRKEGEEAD

B1: C3 anti-CD99 scFv (soluble) (scFv)
scFv: QVQLVQSGAEVKKPGASVKVSCKASGFNIKDTYIHWVRQAPGQGLEWMGRIDPANGNTKYDPKFQGRVTMTRDTSISTAYMELSRLRSDDTAVYYCARRGGVDWGQGTLVTVSSGGGGSGGGGSGGGGSDIVMTQTPLSLSVTPGQPASISCKSSQSLLDGDGKTYLNWLLQKPGQSPQRLIYLVSKLDSGVPDRFSGSGSGTDFTLKISRVEAEDVGVYYCWQGTHFPRTFGQGTKLEIK
notes: Prior-art scFv; Expressed as soluble scFv in E. coli BL21 (DE3) from PET-28b; also called C3 in CN 110590960 A
B2: C4 anti-CD99 scFv (soluble) (scFv)
scFv: EVQLQQSGAELVKPGASVKLSCTASGFDIKDTYIHWVKQRPEQGLEWIGRIDPANGDTRYDPEFQGKASLTADTSSNTAYLQFSNLTSEDTAVYYCARRGGLSWGQGTTLTVSSGGGGSGGGGSGGGGSDIQMTQSPASLSASVGETVTITCRASGNIHNYLAWYQQKQGKSPQLLVYNAKTLADGVPSRFSGSGSGTQYSLKINSLQPEDFGSYYCQHFWSTPWTFGGGTKLEIK
notes: Prior-art scFv; Expressed as soluble scFv in E. coli BL21 (DE3) from PET-28b
B3: C6 anti-CD99 scFv (soluble) (scFv)
scFv: EVQLQQSGAELVKPGASVKLSCTASGFNIKDTYIHWVKRRPEQGLEWIGRIDPANGNTKYDPKFQGKATITADTSSNTAYLQLSSLTSEDTAVYYCARRGLDYWGQGTLVTVSAGGGGSGGGGSGGGGSDVVMTQTPLTLSVTIGQPASISCKSSQSLLDGDGKTYLNWLLQRPGQSPKRLIYLVSKLDSGVPDRFTGSGSGTDFTLKISRVEAEDLGVYYCWQGTHFPRTFGGGTKLEIK
notes: Selected from a CD99 phage antibody library; Expressed as soluble scFv in E. coli BL21 (DE3) from PET-28b (Nde I / Xho I) and purified
B4: C2 anti-CD99 scFv (soluble) (scFv)
scFv: B3 scFv with L101G, D102V, Y103D
notes: Prior-art scFv; Expressed as soluble scFv in E. coli BL21 (DE3) from PET-28b; also called C2 in CN 110590960 A

These binders were tested against T1, extracellular domain of CD99 (assay: surface plasmon resonance (BiacoreX), soluble scFv against extracellular domain of CD99).
Text: The nucleotide sequences shown in SEQ ID NO: 2, SEQ ID NO: 4, SEQ ID NO: 6, SEQ ID NO: 8 and SEQ ID NO: 10 were artificially synthesized with the cleavage site Nde I and Xho I each added to either terminal. The synthetic nucleotide sequences were subjected to dual-enzyme digestion, and then ligated to a cloning vector PMD-19T subjected to the same digestion process as above. The ligated product was transformed into the competent cells, and then the positive clones were screened and sequenced. The plasmid was extracted from the positive clone with a correct sequence, and then subjected to dual-enzyme digestion by using Nde I and Xho I. Meanwhile, an expression vector PET-28b was also subjected to the same dual-enzyme digestion as above. The nucleotide fragment was ligated with the vector fragment, with which E. coli was transformed. The positive clones were screened and sequenced. The positive clone with correct sequence was selected for extracting the plasmid.

Row | Binder | Kd [nM]
1 | B1 | 510
2 | B2 | 600
3 | B3 | 450
4 | B4 | 480
